The source of these data is patent US20260209346A1 (LTZ THERAPEUTICS, published 2026).

What is called IC50 is the concentration at which inhibition is half-maximal. Usually EC50 stands for the concentration needed to bring the measured effect to its halfway point. A high value points to a less potent agent. The term Kd denotes the constant that tells how readily two partners part at equilibrium. Broadly, the koff is the first-order rate constant of dissociation. Broadly, the kon is the second-order rate constant of association. A word on the EC50 (read off the curve): it is the concentration giving half of the maximal effect.

Assay [1] deals with T1, human CD79b recombinant protein (human, UniProt P40259 29-159).
T1 construct: also called human CD79b ECD antigen; recombinant human CD79b ECD
T1 sequence: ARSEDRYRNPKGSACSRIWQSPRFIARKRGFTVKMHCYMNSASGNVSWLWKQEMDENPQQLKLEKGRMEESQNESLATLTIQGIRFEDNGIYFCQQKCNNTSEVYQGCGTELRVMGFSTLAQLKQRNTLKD
The assay is described as follows: ELISA, coated human CD79b recombinant protein. The method, then:
(§1) Binding affinities of anti-CD79b antibodies to human and cynomolgus CD79b recombinant proteins were tested by ELISA. 1 ug/ml (in PBS buffer) of human or cynomolgus CD79b recombinant proteins were coated on an ELISA plate overnight. ELISA plates were washed and blocked with blocking buffer (PBS+1% BSA) followed by incubation with serially diluted anti-CD79b primary antibodies. Anti-CD79b antibody binding was quantified using an anti-human IgG HRP secondary antibody (Biolegend Catalog #410902) and HRP substrate.

In assay [2] the target is T2, cynomolgus CD79b recombinant protein (cynomolgus).
T2 chain: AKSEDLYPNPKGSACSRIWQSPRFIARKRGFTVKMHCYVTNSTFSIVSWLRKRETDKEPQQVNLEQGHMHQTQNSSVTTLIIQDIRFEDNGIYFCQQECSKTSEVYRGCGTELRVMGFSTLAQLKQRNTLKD
Briefly: ELISA; cynomolgus CD79b recombinant protein coated at 1 ug/ml; anti-human IgG HRP; OD 450 nm. The method, then:
as §1
In general terms: An ELISA detects its analyte on a solid surface through an enzyme-linked reagent.

The target in assay [3] is T3, CD79b endogenously expressed on the cell surface (malignant B cell lines, normal B cells in PBMC, CLL … (human, UniProt P40259 29-229)).
T3 construct: whole, on cells; On cells CD79b stands in the B-cell receptor complex with CD79a and surface Ig; also called cell surface CD79b; endogenous CD79b
T3 sequence (looked up): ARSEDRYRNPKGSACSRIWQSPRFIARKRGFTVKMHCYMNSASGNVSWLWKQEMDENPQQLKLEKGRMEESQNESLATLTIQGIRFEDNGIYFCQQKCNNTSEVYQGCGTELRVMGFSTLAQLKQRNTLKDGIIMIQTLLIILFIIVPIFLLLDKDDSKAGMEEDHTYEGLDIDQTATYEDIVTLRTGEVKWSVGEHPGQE
Briefly: flow cytometry on Daudi cells; anti-human IgG1-PE; MFI (PE); table under the graph; curve reaches only about 0.2x10^5 at 40 nM. The method, then:
(§2) The binding affinities of anti-CD79b antibodies to malignant B cell lines were tested. […] The cells were then incubated with 100 μl anti-human IgG1-PE (Invitrogen, cat: 12-4998-82), 1:1000 dilution, for 30 min on ice, washed with 200 ul PBS for three times before flow cytometry analysis.
A general note: Flow cytometry measures light scatter and fluorescence of single cells or particles in a stream.

Assay [4] addresses T3, CD79b endogenously expressed on the …. Briefly: flow cytometry on Ramos cells; anti-human IgG1-PE; MFI (PE); table under the graph; curve reaches only about 0.3x10^5 at 40 nM. On the procedure:
as §2

The target is the same in assay [5]. Briefly: flow cytometry on Nalm-6 cells; anti-human IgG1-PE; MFI (PE); table under the graph; fit of a flat curve, far above the highest concentration of 40 nM. On the procedure: as §2
Assay [6] has as its target T1, human CD79b recombinant protein. The assay is described as follows: BLI, antibody captured on anti-human IgG Fc probes, human CD79b in solution, 1:1 model. The method, then:
(§3) Binding affinities of anti-CD79b antibodies to human CD79b recombinant proteins were tested by BLI. 10 ug/ml of anti-CD79b antibodies were captured by anti-human IgG Fc probes (Gator Bio Catalog #160024). […] Absolute kD was determined by applying a 1:1 binding model (Global Rmax unlinked).
(In general: Biolayer interferometry detects binding as a change in optical thickness at a sensor tip.)

Assay [7] deals with T3, CD79b endogenously expressed on the …. Briefly: flow cytometry on BJAB cells; anti-human IgG1-PE; MFI (PE); table under the graph; plateau only about 1.1x10^5 against about 6x10^5 for the others. The method, then:
as §2

Assay [8] addresses T1, human CD79b recombinant protein. Briefly: BLI; antibody at 10 ug/ml captured on anti-human IgG Fc probes, hCD79b in solution; same value printed in the rows for 18.3 and 9.14 nM hCD79b. The method, then:
as §3

Assay [9] deals with T3, CD79b endogenously expressed on the …. The assay is described as follows: flow cytometry on SU-DHL-4 cells; anti-human IgG1-PE; MFI (PE); table under the graph. The method, then: as §2
Assay [10] shares this target. Briefly: flow cytometry on Daudi cells; anti-human IgG1-PE; MFI (PE); table under the graph. The method, then: as §2
The target of assay [11] is T1, human CD79b recombinant protein. The assay is described as follows: BLI; antibody at 10 ug/ml captured on anti-human IgG Fc probes, hCD79b in solution; row for 9.14 nM hCD79b.
In assay [12] the target is T3, CD79b endogenously expressed on the …. Briefly: flow cytometry on PBMC of Donor 2235, B cells marked with CD19-BV421; anti-human IgG1-PE; MFI (PE); table under the graph. On the procedure: (§4) The binding affinities of anti-CD79b antibodies to endogenous B cells were tested. […] The cells were then incubated with […] mixture of anti-human IgG1-PE (Invitrogen, Cat #: 12-4998-82), 1:1000 dilution; CD19-BV421 (Biolegend, Cat #:302230, 1:400 dilution) for 30 min on ice, and washed with 200 ul PBS for three times before flow cytometry analysis.

Assay [13] has the same target. The assay is described as follows: flow cytometry on Ramos cells; anti-human IgG1-PE; MFI (PE); table under the graph. On the procedure: as §2
The target is the same in assay [14]. The assay is described as follows: flow cytometry on PBMC of Donor 356, B cells marked with CD19-BV421; anti-human IgG1-PE; MFI (PE); table under the graph. On the procedure:
as §4

The target is the same in assay [15]. Briefly: flow cytometry on Nalm-6 cells; anti-human IgG1-PE; MFI (PE); table under the graph. The method, then: as §2
Assay [16] has the same target. Briefly: flow cytometry on PBMC of CLL Donor 0255 (B lymphocytes); PE goat anti-human IgG Fc; MFI PE. On the procedure: To determine the binding affinities of the anti-CD79b antibodies to cell surface CD79b on Chronic Lymphocytic Leukemia (CLL) patient's B lymphocytes, a cell-based binding assay was conducted. […] CLL patient PBMCs were purchased from the company Bioscience. […] Specifically, 2.5×10⁴ PBMC cells in 50 μl FACS buffer (1×PBS+2% BSA+2 mM EDTA) were seeded in each well of a V bottom 96-well plate. […] The mixture was incubated on ice for 30 minutes, and then washed twice with FACS buffer. The cells were re-suspended in 100 μl FACS buffer containing PE conjugated goat anti-human IgG Fc (1:1000) and anti-human CD19 (BV421), and incubated for 30 minutes on ice in darkness. After washing twice with FACS buffer, the cells were re-suspended in 100 μl of FACS buffer and analyzed with a Cytek cytometer.

The target is the same in assay [17]. Briefly: flow cytometry on PBMC of Donor 2890, B cells marked with CD19-BV421; anti-human IgG1-PE; MFI (PE); table under the graph. On the procedure: as §4
Assay [18] has the same target. Briefly: flow cytometry on PBMC of Donor 889, B cells marked with CD19-BV421; anti-human IgG1-PE; MFI (PE); table under the graph. On the procedure: as §4
For assay [19] the target is unchanged. The assay is described as follows: flow cytometry on BJAB cells; anti-human IgG1-PE; MFI (PE); table under the graph. The method, then: as §2
Assay [20] has the same target. The assay is described as follows: flow cytometry on PBMC of Donor 356, B cells marked with CD19-BV421; anti-human IgG1-PE; MFI (PE); table under the graph (the graph's legend prints ch44D2). The method, then: as §4
Assay [21] concerns the target T2, cynomolgus CD79b recombinant protein. The assay is described as follows: ELISA, coated cynomolgus CD79b recombinant protein. On the procedure:
as §1

Assay [22] has as its target T3, CD79b endogenously expressed on the …. Briefly: flow cytometry on a cell line expressing endogenous CD79b (not named on the sheet or in the text); MFI (PE).
Assay [23] has as its target T1, human CD79b recombinant protein. The assay is described as follows: ELISA on recombinant human CD79b ECD; A 450nm.

B1: ch29C3 (antibody, human IgG1, kappa, V domains shown)
VH: QSVKESGGGLFKPTDTLTLTCTVSGIDLNNYAMNWVRQAPGKGLDWIGLIGASGSTYYADWAKGRFTISKTSTTVDLKMTSLTTEDTATYFCAIGISATAHTSNIWGPGTLVAVSL
VL: ALVMTQTPSSVSAAVGGTVTINCQASQNIDSNLAWYQQKPGQPPKLLIYDASALASGVPSRFKGSGSGTEYTLTISGVEPDDAATYYCQQDDSSSNVDNPFGGGTEVVVKR
notes: Rabbit/human chimeric IgG1 kappa; also called chimeric 29C3
As for B1, the IC50 in assay [1] was 0.17 nM. Besides, the binding result in assay [2] is “no binding (tested: about 13 nM)”. In addition, the EC50 in assay [3] is 14.2 nM; in assay [4], 11.3 nM; in assay [5], 508 nM; in assay [7], 0.99 nM. Also, in [6], the Kd was found to be 0.476 nM. The koff in [8] amounted to 0.000168 s⁻¹. Also, the on-rate (kon) in assay [8] worked out at 353000 M⁻¹ s⁻¹.

B2: polatuzumab (antibody, V domains shown)
VH: EVQLVESGGGLVQPGGSLRLSCAASGYTFSSYWIEWVRQAPGKGLEWIGEILPGGGDTNYNEIFKGRATFSADTSKNTAYLQMNSLRAEDTAVYYCTRRVPIRLDYWGQGTLVTVSS
VL: DIQLTQSPSSLSASVGDRVTITCKASQSVDYEGDSFLNWYQQKPGKAPKLLIYAASNLESGVPSRFSGSGSGTDFTLTISSLQPEDFATYYCQQSNEDPLTFGQGTKVEIKR
For the molecule B2, the IC50 in assay [1] is 0.19 nM. The EC50 turned out to be 1.44 nM in assay [9]; 2.24 nM in assay [10]; 1.98 nM in [12]; 1.78 nM in assay [13]; 0.238 nM in assay [14]; 7.85 nM in [15]. Moreover, the values for the EC50 in [17], in assay [18] and in assay [19] were 1.56 nM, 0.153 nM and 1.26 nM, respectively. Further, the dissociation constant Kd in assay [11] turned out to be 0.417 nM. The concentration giving a half-maximal response (EC50 (read off the curve)) in assay [16] was about 0.9 nM.

B3: ch44G2 (antibody, human IgG1, kappa, V domains shown)
VH: QSVRETGGGLVQPGGSLKLSCKASGFTINIDYWISWVRQAPGKGLEWIGIIDPGDGTTYFAIWVSGRFTISFDNTQNTVDLQMNSLTAADTATYFCVREFSASAYQYDLWGPGTLVTVSS
VL: DLVMTQTPSSVSAAVGGTVSINCRASEDIENYLAWYQQKPGQPPKLLIYRASTLSSGVSSRFSGSGSGTEFTLTISGVQPDDAATYYCQQGYRNSNVDNPFGGGTEMVVKR
notes: Rabbit/human chimeric IgG1 kappa; also called chimeric 44G2
B3: the concentration for half-maximal inhibition (IC50) in assay [1] was 0.63 nM; in assay [21], 3 nM. The EC50 worked out at 0.72 nM in assay [9]; 0.79 nM in [10]; 0.357 nM in [20]; 0.727 nM in [12]; 0.86 nM in assay [13]; 1.59 nM in [15]. Also, the EC50 worked out at 0.675 nM in assay [17], 0.0955 nM in [18] and 0.67 nM in [19]. Besides, the “EC50 (read off the curve)” value in assay [22] is about 0.2 nM; in [23] it was about 0.5 nM; in assay [16] it was about 0.8 nM.
